Data on four molecules can be found in US20240010723A1 (IBEX BIOSCIENCES, published 2024).

For experiment [1], the target named is T1, Human CD147 (Uniprot P35613), recombinant protein (human, UniProt P35613 138-325).
T1 construct: also called recombinant CD147; CD147 protein
T1 sequence: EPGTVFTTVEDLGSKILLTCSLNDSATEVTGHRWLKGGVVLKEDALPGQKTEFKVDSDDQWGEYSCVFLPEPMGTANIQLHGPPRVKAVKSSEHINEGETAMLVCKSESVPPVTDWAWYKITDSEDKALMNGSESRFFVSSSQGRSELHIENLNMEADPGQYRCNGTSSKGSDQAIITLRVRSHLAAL
Kind of experiment: SPR sensorgram, partly purified sample injected on a sensor chip; the chip's ligand is not stated. As to the method: Approximately 45 μl of Ibx-74 and Ibx-75 at various stages of purification were provided; 35 μl of each sample was injected on a sensor chip and sensograms were collected. The flow rate was 10 μ/minute, and the chip was regenerated with 10 mM Glycine at pH 1.5.

The target in experiment [2] is T2, Murine CD147 (Uniprot P18572), recombinant protein (murine (mouse), UniProt P18572 22-325, limits assumed).
T2 construct: also called mCD147; mouse CD147
T2 sequence: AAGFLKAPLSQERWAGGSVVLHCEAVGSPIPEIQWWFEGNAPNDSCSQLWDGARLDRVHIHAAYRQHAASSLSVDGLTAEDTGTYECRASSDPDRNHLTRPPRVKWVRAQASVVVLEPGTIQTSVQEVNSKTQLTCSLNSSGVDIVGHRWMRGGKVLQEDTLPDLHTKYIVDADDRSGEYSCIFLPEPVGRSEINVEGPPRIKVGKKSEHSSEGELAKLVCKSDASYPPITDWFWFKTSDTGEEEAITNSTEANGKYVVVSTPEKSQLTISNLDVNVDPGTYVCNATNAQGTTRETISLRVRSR
Kind of experiment: ELISA, 100 ng murine CD147 coated, anti-flag detection. As to the method:
For the ELISA, 100 ng of murine CD147 was coated onto Nunc polysorb plates overnight in 1× coating buffer. The wells were washed once with TBST (0.01% tween 20) and then blocked for 1 hour using 1× fishgel in TBST at room temperature (RT). Ibx-11, Ibx-13, Ibx-75, Ibx-76, Ibx-77, and anti-HIS antibody was incubated at 0.01-100 ng/well in 100 μl for 1 hour at RT before being washed 3× for 5 min each wash. The wells were incubated with anti-human for Ibx-11 & Ibx-13 treated wells and with anti-flag for Ibx-77, Ibx-75, Ibx-76 treated wells at 1:1000 dilution for 1 hour RT, and then washed 3× for 5 min each wash. The wells were incubated with 100p/Well of TMBE for 30 minutes and the reaction was stopped with 100p/Well of 2N sulphuric acid. Optical Density (OD) was measured using Biotek synergy 4 instrument for quantification.

Experiment [3] deals with T3, Human CD147 (Uniprot P35613), recombinant protein (UniProt P35613 138-325).
T3 chain: T1 sequence
Kind of experiment: SPR.

Experiment [4] concerns the target T3, Human CD147 (Uniprot P35613), …. Kind of experiment: SPR; kinetic model; Ibx-77 injected over immobilized CD147.
For experiment [5], the target named is T1, Human CD147 (Uniprot P35613), …. Kind of experiment: SPR, CD147 injected as analyte at 0-900 nM, kinetic model. As for the experimental part: (§1) For this assay, CD147 was injected in HBS-EP buffer pH7.4 at concentrations ranging from 0 nM to 900 nM at 10 μl/min for 600 Seconds. Duplicate CD147 injections were carried out for 0, 9.22, […], 23.04, 57.6, 144, 360, 900 nM (a 2.5-fold dilution series). The chip surface was regenerated using 10 mM Glycine pH 2.0 @ 10 μl/min for 180 sec.
(§2) One technical replicate of 0 nm & 23.04 nM was excluded from analysis due to sudden air spikes and DIPs during analyte injection. Data were analyzed in Q-Dat software provided by instrument manufacturer. A steady state 1:1 fitting model (FIG. 4) was used for initial steady state binding analysis, and a simple Kd/Ka kinetic model (FIG. 5) was used to estimate KD.

For experiment [6] the target is unchanged. Kind of experiment: SPR, CD147 injected as analyte at 0-900 nM, steady state 1:1 fit. As for the experimental part: as §1, §2
The target of experiment [7] is T3, Human CD147 (Uniprot P35613), …. Kind of experiment: SPR; steady state 1:1 fit; Ibx-77 injected over immobilized CD147.

B1: Ibx-75 (dimer of Ibx-12) (VHH)
chain: QVRLVESGGGLVQAGDSLRLSCQASGGTFTTYAMGWFRQAPGQEREFVSATTWSTGTSYYAYAADSVKGRFTTSRDNDNTVTLTMKRLKPDDTAVYYCSADPDGSDWAHSARQLRYWGQGTQVTVSSEPKIPQPQPKPQPQPQPQPQPKPQPEPQVRLVESGGGLVQAGDSLRLSCQASGGTFTTYAMGWFRQAPGQEREFVSATTWSTGTSYYAYAADSVKGRFTTSRDNDNTVTLTMKRLKPDDTAVYYCSADPDGSDWAHSARQLRYWGQGTQVTVSS
notes: Tandem bivalent VhH without Fc; also called tandem bivalent Ibx-75; not shown: Flag tag, since detection was with anti-flag
With B1, the koff in experiment [1] stood at 1e-06 s⁻¹. Moreover, the binding result in experiment [2] is listed as “no binding (tested: 0.01-100 ng/well)”. Besides, the Kd in experiment [3] is 0.000428 nM.

B2: Ibx-74 (dimer of Ibx-11) (VHH)
chain: QVRLEESGGGLVQAGGSLRLSCAASGLAFSIYGMGWFRQAPGKEREFVSVVDNTGSTTLYADSVKGRFTISRDNAKNTVYLQMSSLEPEDTAVYYCGAGPKNYLGSHEYAYWGQGTQVTVSSEPKIPQPQPKPQPQPQPQPQPKPQPEPQVRLEESGGGLVQAGGSLRLSCAASGLAFSIYGMGWFRQAPGKEREFVSVVDNTGSTTLYADSVKGRFTISRDNAKNTVYLQMSSLEPEDTAVYYCGAGPKNYLGSHEYAYWGQGTQVTVSS
notes: Tandem bivalent VhH
For B2, in experiment [1], the koff was 3e-05 s⁻¹. Also, the Kd in experiment [3] was determined as 0.0139 nM.

B3: Ibx-76 (dimer of Ibx-13) (VHH)
chain: QVQLVESGGGLVQPGGSLRLSCTASEDTFSTYAIGWFRQAPGQGREFVAGITANGIATRYNDSLKDRFTISRDNAKNTVYLQMNSLQPEDTAVYSCGADTRRFSLPSTVHEIDYWGQGTQVTVSSEPKIPQPQPKPQPQPQPQPQPKPQPEPQVQLVESGGGLVQPGGSLRLSCTASEDTFSTYAIGWFRQAPGQGREFVAGITANGIATRYNDSLKDRFTISRDNAKNTVYLQMNSLQPEDTAVYSCGADTRRFSLPSTVHEIDYWGQGTQVTVSS
notes: Tandem bivalent VhH without Fc; not shown: Flag tag, since detection was with anti-flag
As to B3, the binding result in experiment [2] is on record as “no binding (tested: 0.01-100 ng/well)”.

B4: Ibx-77 (dimer of Ibx-14) (VHH, not shown: small tags and cut ends)
chain: QVQLVESGGGLVQAGDSLTLSCAASGRSLSSNAMGWFRQAPGKEREFVSGTTWHAGTQYYAYAADSVKGRFTTSRDNANTVSLQMKRLKPEDTAVYYCAAAVSGPGYDSWGQGTQVTVSSEPKIPQPQPKPQPQPQPQPQPKPQPEPQVQLVESGGGLVQAGDSLTLSCAASGRSLSSNAMGWFRQAPGKEREFVSGTTWHAGTQYYAYAADSVKGRFTTSRDNANTVSLQMKRLKPEDTAVYYCAAAVSGPGYDSWGQGTQVTVSS
notes: Tandem bivalent VhH without Fc
With B4, the Kd in experiment [4] came out at 0.335 nM; in experiment [5], 36.1 nM; in experiment [6], 138 nM; in experiment [7], 10.8 nM. Further, the binding result in experiment [2] was “no binding (tested: 0.01-100 ng/well)”. Also, the off-rate constant (koff) in experiment [5] worked out at 0.000489 s⁻¹. Further, the kon in experiment [5] amounted to 13300 M⁻¹ s⁻¹.
